Consider 19 sequences from the DeepSol protein solubility set.

A short description of the data set: soluble on expression in E. coli; label from the status in PepcDB or PDB records.
As to “METNALDVNKQSWDQAAPRFFARNPLPEYGPLAPSEEELHLFGDVDRLKVLEIGCGSGHSLKYLDEKQAGELWGIDLSTKQIEAAQTVLKDSKAPVTLFESPMEVNPGLPTDYFDIVFSIYALGWTTNLTKTLENVYRYLKPGGSFIFSWEHPMYNRVRQHQHGLTVDKSYHEEGAYAHEAWSSPAIMQQYRLSTYLNHLIDHGFKVERVIEDVCLADAQKHTNGWYGYEKAQMIPTTLIIKCLKQLEHHHHHH”, the “soluble on expression in E. coli” value is listed as “not soluble”.
The entry for “METVQLRNPPRRQLKKLDEDSLTKQPEEVFDVLEKLGEGSYGSVYKAIHKETGQIVAIKQVPVESDLQEIIKEISIMQQCDSPHVVKYYGSYFKNTDLWIVMEYCGAGSVSDIIRLRNKTLTEDEIATILQSTLKGLEYLHFMRKIHRDIKAGNILLNTEGHAKLADFGVAGQLTDTMAKRNTVIGTPFWMAPEVIQEIGYNCVADIWSLGITAIEMAEGKPPYADIHPMRAIFMIPTNPPPTFRKPELWSDNFTDFVKQCLVKSPEQRATATQLLQHPFVRSAKGVSILRDLINEAMDVKLKRQESQQREMDQDDEENSEEDEMDSGTMVRAVGDEMGTVRVASTMTDGANTMIEHDDTLPSQLGTMVINAEDEEEEG” is “soluble”; for “MEVKYGLHPTLGEHGERELLALQKVDYPKGDVKAQAKHTARTLLECYNCHSLGEYNTLLNLYNITVYEVRGSVDGKEYHGIMYGALDDNGQQVGTPFKSSKFGKVFGYEALQKKFAASAEKVKKDNLPERLEHHHHHH” it is “not soluble”; for “MEWAAKKTNSLTSSSERTWKANLLVPVEDPRELMGTFDFLRDITYPKGSVKLLGLAGNTDKENLLSQLPSISEGFQEEGVFSSWTIIDTAEFEENLVVGMEALTGSFFRPSILFLRLPENRDRDEEIREIIRKASMYRMGVLLFSKHPQAGLGRQNLINLWIENRGLDWDISMELGNMDLALLIAYKLKSNWKASLSFMTFAPTAIQAQAAENFLQSLAELARIPNVKMQVLRENPIKSSKLPFASLHIFSLDPNPDLDLARHLMEKAGSSCIFALDSGEENALALLEHHHHHH” it is “soluble”.
The value for “MEYCRLDGDTGRLRTEIKHPRLLLFNPGHEMVPEIIGKKPYVPPPVVRSMMRDLGLLPAWLTKSEQDFVFCPEKTLPIPDTHPLKPEARLLQIPDTALPLNDYTLDMWGQSPVWLAALQHRFLWLSTVSAPYYPHELYERSHRCEAARCLEAIGHSEMAAHWFTSINDFLKERYHCFPPDSALLAKLPSSSSGRGLIWLSSSPTDDEIDLLTKALRRAGSFSVEPVLDVRQDWAAEFYSNGKGELYFVGWSRFDTNRWGAYLGNRLATQTDLVAELTQTVGAQAHEEAIASVKDYLRER” was “not soluble”; that for “MEYDAFITNQLRGAQNQSSGLTTRYEQMSKIDNLLADKSSSLSGSLQSFFTSLQTLVSNAEDPAARQALIGKAEGLVNQFKTTDQYLRDQDKQVNIAIGSSVAQINNYAKQIANLNDQISRMTGVGAGASPNDLLDQRDQLVSELNKIVGVEVSVQDGGTYNLTMANGYTLVQGSTARQLAAVPSSADPTRTTVAYVDEAAGNIEIPEKLLNTGSLGGLLTFRSQDLDQTRNTLGQLALAFADAFNAQHTKGYDADGNKGKDFFSIGSPVVYSNSNNADKTVSLTAKVVDSTKVQATDYKIVFDGTDWQVTRTADNTTFTATKDADGKLEIDGLKVTVGTGAQKNDSFLLKPVSNAIVDMNVKVTNEAEIAMASESKLDPDVDTGDSDNRNGQALLDLQNSNVVGGNKTFNDAYATLVSDVGNKTSTLKTSSTTQANVVKQLYKQQQSVSGVNLDEEYGNLQR” was “soluble”.
In the case of “MEYSDIRDRILLATLPNVPFDGWSGKALRLGAESAGFDREAADRAFPGGPAEAVGHFIDLANRMMEADLGARDLSGLKLPEKIHLAIKLRLERWAGDREAVRRGLALLSLPGHARLSLKSTYATVDGIWHAVGDRSVDFSFYTKRAELAAIYGATLLVWLEDTSEESAETWAFLDRRLEGVIRLRKARAKLRERMTHLPTLPRLLNPLDLVRKPFGLMRSMRMRLEHHHHHH”, the “soluble on expression in E. coli” value is “soluble”.
The entry for “MFAMTSSAQSPLQQLGGTVVLAGAGKMGGALLTGWLAQGLDGGDVVVIEPHPTEEIAALSARGVRLNASAGDVGAVSTLVVAVKPQMFAEAAAALRGYVGPSTLVVSIMAGKPIAALSEQLGGHVVRAMPNTPAAIGRGITVAVAAGNVTAAQRGIADALLRATGGVEWVDDEALIDAVTAVSGSGPAYVFLLAEELARAGVEAGLPEGLAMTLARATVAGSGELLHRSDLDAATLRKNVTSPGGTTAAALEVLMANDGFRPLLTRAVAAATKRSKELAKAAALEHHHHHH” is “soluble”; for “MFEVPITLTNRKFAQRRKLKYQYINYISRRFDRISKKSTTTDSLPTPENSAAENNDEEEGQNSEAGTYRRSVLQQKKRRRERHWRSVVGEIYSTTESETDSQEEETEEGGEHDTGIDKEDSDEERKFWKKYEKPEKSFEIWRTVSSQNKQPINKQKMTYHNFKKIEKIPLRKMEIPLLHCTKENKLYFQSISRGLEPLKTSTSEVRNYRTRHIVTLTDLLHLNVSRHNWSLAYKIFATLIRIPGVQIKSLWGIGVEILDNLSNSSSGLDFLQWMCQIYSSKSRFVQNINYRSIVPPFQTGSRTHTAKFAITYLWSSLINCQKSMEPSSNIIDKPFDTENDLLQELIDKISEWVLTPPFMEDAEVWFIYASCHLLKADTLSRQFVNDNKNNDLIGLDRDIKINQVIKHIHYVRTFLKICLDKGGFAVPSRLIENQLKSFESRLYGEAQDIQERDVANVYDSIDNSSVENSFGDVYETNAEFLDTQLMDLSPEDNGLDEMHYSDEDSSE” it is “not soluble”; for “MFFQSIYQMMSAGTDLNINIRRTDGKLSVAVIPKRTTLKDEAGQAIVPLILNGTPMELDGQFLQIITTPLQKAQGILTNLETFEQQARLAATQGKAAGTANDKKTKEAREKQEKMEKLLKRAEEAFTAGRYSEATTCFRQAKVLADTDRQKQIEARIQEVQKESSQGCLFPETDTQPLPQQPPANGTANGNRPDGQMRMFTSQPPQQPVQQAIPQPVQQPVPRPQIVQPQPVPQYYPGTPQPQPMYEGYCRNPANGSPQQTAEQPQTYFLQPGGQYPQTQPWQQPQPVPLQPQATVIQTTRENTGREYQSPPQPAAEALTFDKDDESDRELLREDPYAEYIDFPQECRMKDETQAELICC” it is “not soluble”.
Take “MFFSALKSFLSRYITVWRNVWAVRDQLKPPKRTAEEQAFLPAHLELTDTPVSAAPKWAARFIMAFALLALLWSWFGKIDIVAAASGKTVSGGRSKTIQPLETAVVKAVHVRDGQHVKQGETLAELEAVGTDSDVVQSEQALQAAQLSKLRYEAVLAALESRTVPHIDMAQARSLGLSDADVQSAQVLAQHQYQAWAAQDAQLQSALRGHQAELQSAKAQEQKLVSVGAIEQQKTADYRRLRADNFISEHAFLEQQSKSVSNWNDLESTRGQMRQIQAAIAQAEQNRVLNTQNLKRDTLDALRQANEQIDQYRGQTDKAKQRQQLMTIQSPADGTVQELATYTVGGVVQAAQKMMVIAPDDDKMDVEVLVLNKDIGFVEQGQDAVVKIESFPYTRYGYLTGKVKSVSHDAVSHEQLGLVYTAVVSLDKHTLNIDGKAVNLTAGMNVTAEIKTGKRRVLDYLLSPLQTKLDESFRER”: the “soluble on expression in E. coli” value is “not soluble”.
The entry for “MFGLPMYNVWRAEQAGKAEFSKAEQNRRIKIEEAKANLEAEKLNAKAEIERAKGAAEAIRIENNSLTPTYIQYLWVRQQGSLNDKTVIYIPTEANLPLLEAGRTAGGLKRAECPTE” is “not soluble”; for “MFGYPGGAVLDIYDALHTVGGIDHVLVRHEQAAVHMADGLARATGDVGVVLVTSGPGATNAITGIATAYMDSIPLVILSGQVATSLIGYDAFQECDMVGISRPVVKHSFLVKQTEDIPLVLKKAFWLAASGRPGPVVVDLPKDILNPAKKMPYAWPETVSMRSYNPTTSGHKGQIKRALQTLASAKKPVVYVGGGAISAACYAPLRHIIETFNLPVVSSLMGLGAFPATHRQSLGMLGMHGTYEANMTMHNADVIFAVGVRFDDRTTNNLAKYCPNATVLHIDIDPTSISKTVNADIPVVGDARLVLEQMLELLAQDAPSQPQDDIRDWWQQIESWRARQCLKYDAESESIKPQAVIETLWRLTKGDAYVTSDVGQHQMFAALYYPFDKPRRWINSGGLGTMGFGLPAALGVKMALPKEMVVCVTGDGSIQMNIQELSTALQYELPVLVLNLNNRYLGMVKQWQDMIYSGRHSQSYMQSLPDFVRLAEAYGHVGLQINRPDELESKLSEALEHVRNNRLVFVDVTVDGSEHVYPMQIRGGGMDEMWLSKTERT” it is “not soluble”.
The value for “MFGYRSNVPKVRLTTDRLVVRLVHDRDAWRLADYYAENRHFLKPWEPVRDESHCYPSGWQARLGMINEFHKQGSAFYFGLFDPDEKEIIGVANFSNVVRGSFHACYLGYSIGQKWQGKGLMFEALTAAIRYMQRTQHIHRIMANYMPHNKRSGDLLARLGFEKEGYAKDYLLIDGQWRDHVLTALTTPDWTPGR” was “not soluble”.
The value for “MFISCIILINYSYIFGKNIRYLYEFKVIWKSNNSLILFFIEFDRNFMTIKFKLFKCRRLNILIELINIENYFRNGNILCFIFNIPSIPRNLLINVFLTSSNKVNISIQGLKLEHHHHHH” was “not soluble”; that for “MFKPELLSPAGTLKNMRYAFAYGADAVYAGQPRYSLRVRNNEFNHENLQLGINEAHALGKKFYVVVNIAPHNAKLKTFIRDLKPVVEMGPDALIMSDPGLIMLVREHFPEMPIHLSVQANAVNWATVKFWQQMGLTRVILSRELSLEEIEEIRNQVPDMEIEIFVHGALCMAYSGRCLLSGYINKRDPNQGTCTNACRWEYNVQEGKEDDVGNIVHKYEPIPVQNVEPTLGIGAPTDKVFMIEEAQRPGEYMTAFEDEHGTYIMNSKDLRAIAHVERLTKMGVHSLKIEGRTKSFYYCARTAQVYRKAIDDAAAGKPFDTSLLETLEGLAHRGYTEGFLRRHTHDDYQNYEYGYSVSDRQQFVGEFTGERKGDLAAVAVKNKFSVGDSLELMTPQGNINFTLEHMENAKGEAMPIAPGDGYTVWLPVPQDLELNYALLMRNFSGETTRNPHGK” was “soluble”; that for “MFKRLMMVALLVIAPLSAATAADQTNPYKLMDEAAQKTFDRLKNEQPQIRANPDYLRTIVDQELLPYVQVKYAGALVLGQYYKSATPAQRDAYFAAFREYLKQAYGQALAMYHGQTYQIAPEQPLGDKTIVPIRVTIIDPNGRPPVRLDFQWRKNSQTGNWQAYDMIAEGVSMITTKQNEWGTLLRTKGIDGLTAQLKSISQQKITLEEKK” was “not soluble”.
Regarding “MFMIEVEIFPHRYLKASTTEKFLNKIYDLKTVERVVIHGQPLPKVITYGPARGLPVNHTERKIIHVKGVPVELTVMAGRFWITLSDDSELDKLDEICKEMFPFGYNLRVGKFLKDRPTVTDYIKYGEDGVFLINEMDRRLIGMVDPRSRMANSVTVVEKEEKEELEHHHHHH”, the “soluble on expression in E. coli” value was “soluble”.
For “MFNGEKVTLLEMLDAREQRAATQKELLETAPEASLLSATMNIPGEVKNSPTLTAVFLEVIDEVEQQLLDQVPIVNFYRNEKTGPEYYLAVSLAPQELKQRMVKIEETHPYGRLVDLDVLWGNEELKSLHRGDLGLPPRRCFICQEVAKVCGRNRRHSLEAMQEKITEIILTRKEQPSE”, the “soluble on expression in E. coli” value is on record as “not soluble”.
